According to article PMC11088064 (2024):

B1: His-tagged mPD-1 (PD1-M5228, ACRO Biosystem) (receptor)
chain: LEVPNGPWRSLTFYPAWLTVSEGANATFTCSLSNWSEDLMLNWNRLSPSNQTEKQAAFCNGLSQPVQDARFQIIQLPNRHDFHMNILDTRRNDSGIYLCGAISLHPKAKIEESPGAELVVTERILETSTRYPSPSPKPEGRFQGM

Key:
RMP1-14 [1] = assay: SPR; pH 6.0
RMP1-14 [2] = assay: SPR; pH 7.4
[3] = molecular target: B1; assay: SPR; pH 6.0
[4] = molecular target: T1, hPD-1 (PD-1-H5221, ACRO Biosystems) (human, UniProt Q15116 25-170); assay: SPR; pH 7.4
[5] = molecular target: B1; assay: SPR; pH 7.4
[6] = molecular target: T1, hPD-1 (PD-1-H5221, ACRO Biosystems); assay: SPR; pH 6.0
[7] = molecular target: B1; assay: SPR; pH 6.0
[8] = molecular target: T1, hPD-1 (PD-1-H5221, ACRO Biosystems); assay: SPR; pH 7.4; remark: listed apart in the source
[9] = molecular target: B1; assay: SPR; pH 7.4

T1 sequence (Q15116 25-170): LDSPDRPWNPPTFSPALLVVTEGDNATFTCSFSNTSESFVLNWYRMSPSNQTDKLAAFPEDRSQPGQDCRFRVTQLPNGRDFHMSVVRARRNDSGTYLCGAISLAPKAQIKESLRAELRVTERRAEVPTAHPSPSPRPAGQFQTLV

Kd (RMP1-14 [1]) [pM] | koff (RMP1-14 [1]) [s⁻¹] | Kd (RMP1-14 [2]) [pM] | koff (RMP1-14 [2]) [s⁻¹] | Kd [3] [pM] | Kd [4] [pM] | Kd [5] [pM] | koff [6] [s⁻¹] | koff [7] [s⁻¹] | koff [8] [s⁻¹] | koff [9] [s⁻¹] | Binder
2880 | 0.00025 | 2430 | 0.00028 |  |  |  |  |  |  |  | B1
 |  |  |  | 180 | 410 | 380 | 3e-05 | 5e-05 | 6e-05 | 9e-05 | GNUV201 (antibody, V domains shown) VH: QVQLVQSGAEVKKPGASVKVSCKASGYTFTGYWMHWVRQAPGQGLEWIGMIHPNSDTTTYNEKFKNRVTMTRDTSISTAYMELSRLRSDDTAVYYCAGTDQAAWFAFWGQGTTVTVSS VL: DIVMTQTPLSLSVTPGQPASISCRSSQNIVHSQGDTYLEWYLQKPGQSPQLLIYKVSKRFSGVPDRFSGSGSGTDFTLKISRVEAEDVGVYYCFQGSHVPWTFGGGTKVEIK
